Measured values taken from patent US20040141918.

Tested on: Int6 protein expressed in bacteria using the QUIA Express Type 4 vector, purified
Sequence (chain, as listed by the source): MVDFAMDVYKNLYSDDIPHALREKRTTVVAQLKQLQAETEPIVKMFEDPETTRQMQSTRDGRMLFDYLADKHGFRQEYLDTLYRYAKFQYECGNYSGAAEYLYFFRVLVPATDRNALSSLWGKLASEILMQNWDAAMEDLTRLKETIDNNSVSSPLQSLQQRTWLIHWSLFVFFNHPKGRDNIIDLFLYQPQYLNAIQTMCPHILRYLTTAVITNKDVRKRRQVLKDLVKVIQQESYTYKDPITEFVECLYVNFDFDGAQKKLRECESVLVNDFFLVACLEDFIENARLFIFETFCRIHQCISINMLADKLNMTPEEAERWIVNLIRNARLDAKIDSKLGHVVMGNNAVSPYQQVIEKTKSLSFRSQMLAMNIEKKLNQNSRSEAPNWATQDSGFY

protein kinase C
phosphorylation by PKC: shown to be phosphorylated by PKC (data not shown)
